Measured values published in patent US20100291089A1, “LIGAND OF REGULATING IMMUNE RESPONSE, AND USE THEREOF IN TREATING AN IMMUNE RESPONSE-RELATED DISEASE” (POSTECH ACADEMY-INDUSTRY FOUNDATION, priority 2005, published 2010).
Where no end group is shown, it is not given here. [ ]: non-standard residue; d: D form.

B1: SAA: Serum amyloid A, multi-functional apolipoprotein, 12- to 14-kDa, SEQ ID NO:19 (protein, listed as Homo sapiens)
chain: MKLLTGLVFCSLVLGVSSRSFFSFLGEAFDGARDMWRAYSDMREANYIGSDKYFHARGNYDAAKRGPGGVWAAEAISDARENIQRFFGHGAEDSLADQAANEWGRSGKDPNHFRPAGLPEKY

Experiments:
HUVECs [1] = assay: HUVEC wounding migration assay; assay type: cell-based, human; conditions: SAA 5 μM, WKYMVm 10 nM, VEGF 20 ng/ml; 12 h
Procedure: […] After 12 h of incubation, migration was quantitated via counts of the cells migrating beyond the reference line. For the tube formation assay, the HUVECs were seeded on a layer of previously polymerized Matrigel (BD Biosciences) with SAA (SEQ ID NO:19) (5 μg/ml), WKYMVm (SEQ ID NO:5) peptide (10 nM), a specific ligand for FPRL1 (32, 33) or VEGF (20 ng/ml). After 18 h of incubation, the cell morphology was visualized via phase-contrast microscopy and photographed.

human neutrophils = assay: Intracellular calcium mobilization (fura-2) in human neutrophils; assay type: cell-based; conditions: 1 M PACAP27 and 10 nM WKYMVm
Procedure: Neutrophils were stimulated with 1 μM of PACAP27 (SEQ ID NO:1), PACAP38 (SEQ ID NO:2), or VIP (SEQ ID NO:3), and calcium concentrations were measured for 10 min. In order to measure EKR phosphorylation, each peptide hormones was used with 1 μM concentrations for 5 min. For cAMP measurement, each peptide hormones was used with 1 μM concentrations for 10 min.
Intracellular calcium concentrations ([Ca^2+]i) were determined using Grynkiewicz's method with fura-2/AM, as described in “Grynkiewicz, G., M. Poenie, and R. Y. Tsien. 1985. […] J. Biol. Chem. 260:3440-3450”. Briefly, the cells prepared in Example 1.2 were incubated with 3 µM fura-2/AM at 37° C. for 50 minutes in fresh serum free RPMI 1640 medium with continuous stirring. The incubated cells (2×10^6) were aliquoted for each assay in Ca^2+-free Locke's solution (154 mM NaCl, 5.6 mM KCl, 1.2 mM MgCl2, 5 mM HEPES (pH 7.3), 10 mM glucose, and 0.2 mM EGTA). Fluorescence changes at 340 and 380 nm using a common emission wavelength of 500 nm were measured, and fluorescence ratios were converted to [Ca2+]i, as described in above Grynkiewicz, G. et al.

aortic rings = assay: Rat aorta ring assay; conditions: ex vivo, 7 days
Procedure: Aortas from male Sprague-Dawley rats were cross-sectioned into rings, and mounted onto polymerized Matrigel dishes. Matrigel (150 μl) was then positioned on top and allowed to gel. After 7 days, the aortic rings, incubated with PBS, SAA (SEQ ID NO:19) (3 and 5 μg/ml), WKYMVm (SEQ ID NO:5) (10 nM), VEGF (20 ng/ml), or FBS (10%) were analyzed under an inverted microscope.

HUVECs [2] = assay: HUVEC tube formation assay on Matrigel; assay type: cell-based, human; conditions: SAA 5 μM, 18 h
Procedure: The wounding migration and tube formation activity of the HUVECs were measured as previously described (30, 31). In brief, HUVECs plated at confluence on 60-mm culture dishes were wounded with pipette tips, then treated with SAA (SEQ ID NO:19) (0-5 μg/ml), WKYMVm (SEQ ID NO:5) (10 nM), or VEGF (20 ng/ml) in M199 medium, supplemented with 1% serum and 1 mM thymidine. After 12 h of incubation, migration was quantitated via counts of the cells migrating beyond the reference line. […] After 18 h of incubation, the cell morphology was visualized via phase-contrast microscopy and photographed.

HUVECs [3] = assay: HUVEC proliferation ([3H]-thymidine incorporation); assay type: cell-based, human; conditions: 48 h
Procedure: In brief, fresh synovial tissues were minced into 2- to 3-mm pieces, then treated for 4 h with 4 mg/ml type I collagenase (Worthington Biochemical), and maintained in Dulbecco's Modified Eagle's Medium (DMEM) containing 10% FBS at 37° C. in an atmosphere containing 5% CO2. […] MH7A cells, the immortalized synoviocytes that harbor the SV40 T antigen, were grown in DMEM supplemented with 10% FBS, as previously described (Miyazawa, K, A. Mori, and H. Okudaira. 1998. Establishment and characterization of a novel human rheumatoid fibroblast-like synoviocyte line, MH7A, immortalized with S[…] antigen. J. Biochem. 124: 1153-1162), and then employed in some of the experiments. Human umbilical vein endothelial cells (HUVECs) were isolated from fresh human umbilical cords via collagenase (Worthington Biochemical) digestion, and then maintained in 20% FBS-containing M-199 medium (Sigma, St. Louis, Mo.), as previously described. All HUVECs were used after no more than five passages. The RA FLS, OA FLS, and HUVECs were plated onto 24-well culture dishes at a density of 2×10^4 cells/well, and then permitted to attach overnight. […] Cell growth was also evaluated via cell counts. Control and mitogen-treated cells were harvested by trypsinization, and the number of cells was determined with a hemocytometer, under ×100 magnification.

Molecule | migratory activity of HUVECs relative to control cells (HUVECs [1]) | calcium signaling on sequential stimulation (cross-desensitization) (human neutrophils) | sprouting of endothelial cells from aortic rings (aortic rings) | formation of tube-like structures (HUVECs [2]) | concentration of maximum effects on HUVEC DNA synthesis (HUVECs [3]) [µM] | DNA synthesis in HUVECs (HUVECs [3]; SAA 0.1 to 5 μM)
WKYMVm: specific agonist peptide for FPRL1, SEQ ID NO:5 (WKYMV[dM]; listed as Homo sapiens) | approximately 3 times | bidirectional desensitization |  |  |  | 
B1 | approximately 3 times |  | increased as the result of SAA treatment, in a dose-dependent manner | far superior | 5 | dose-dependent manner
